Experimental data taken from patent US20030113711A1, “Protein kinase peptide substrate determination using peptide libraries” (priority 2001, published 2003).

Experiments:
[1] = tested on: CC[C@H](C)[C@H](NC(=O)[C@H](CC(=O)O)NC(=O)[C@H](CCC(=O)O)NC(=O)[C@H](CCSC)NC(=O)CNC(=O)CNC(=O)CCCCCNC(=O)CCCC[C@@H]1SC[C@@H]2NC(=O)N[C@@H]21)C(=O)N[C@@H](Cc1ccc(O)cc1)C(=O)N[C@@H](Cc1ccccc1)C(=O)N[C@@H](CCC(=O)O)C(=O)N[C@@H](Cc1ccccc1)C(=O)N[C@@H](CCSC)C(=O)NCC(=O)NCC(=O)N[C@@H](CCCCN)C(=O)N[C@@H](CCCCN)C(=O)N[C@@H](CCCCN)C(N)=O; test: Two-substrate kinetic comparison with known substrate, peptide and ATP varied simultaneously; assay type: biochemical; details: other: ErbB-2; peptide and ATP concentrations varied simultaneously, two-substrate fit
Description: (§1) In a separate experiment, the kinetic parameters of both peptide number 1 shown in Table 2, and a peptide with the sequence Biotin-Ahx-G-G-M-E-D-I-Y-F-E-F-M-G-G-K-K-K-amide (SEQ ID NO: 17), which has been previously identified as an ErbB-2 substrate (Jan et. al., (2000), Biochemistry 39: 9786-803), were determined and compared. In this experiment, both peptide and ATP concentrations were varied, and the resulting data was simultaneously fit to an equation representing a two-substrate enzyme reaction using SIGMAPLOT®. Data was collected using the kinases ErbB-2, ErbB-4, and EGFR. The results of this experiment are shown in Table 3 and indicate that for all three kinases tested, peptide number 1 shown in Table 2 is kinetically at least equivalent (based on kcat/Km values) to the known peptide substrate identified by Jan et al.

[2] = tested on: CC[C@H](C)[C@H](NC(=O)[C@H](CCC(=O)O)NC(=O)[C@H](CCC(=O)O)NC(=O)[C@H](Cc1c[nH]cn1)NC(=O)[C@H](C)NC(=O)[C@H](CCCNC(=N)N)NC(=O)CCCCCNC(=O)CCCC[C@@H]1SC[C@@H]2NC(=O)N[C@@H]21)C(=O)N[C@@H](Cc1ccc(O)cc1)C(=O)N[C@@H](Cc1c[nH]cn1)C(=O)N[C@@H](Cc1ccccc1)C(=O)N[C@@H](Cc1ccccc1)C(=O)N[C@@H](Cc1ccccc1)C(=O)N[C@@H](C)C(=O)N[C@@H](CCCCN)C(=O)N[C@@H](CCCCN)C(=O)N[C@@H](CCCCN)C(N)=O; test: as above; assay type: biochemical; details: other: ErbB-2; peptide and ATP concentrations varied simultaneously, two-substrate fit
Description: as §1

Substance ErbB-2 (Homo sapiens) has a Km [1] of 157 µM, a kcat [1] of 0.0367 s⁻¹ and a kcat/Km [1] of 233 M⁻¹ s⁻¹. The Km [2] was 58 µM, the kcat [2] was 0.0233 s⁻¹ and the kcat/Km [2] was 417 M⁻¹ s⁻¹.
